One assay deals with T1, S96A.
T1 construct: also called human GM-CSF alanine mutant S96A
Nature of the assay: semi-quantitative ELISA; GM-CSF polypeptide coated in serial dilutions (x axis = log coating concentration, no unit), 4K21 fixed at 12.5 ng/ml, goat anti-mouse IgG-HRP, absorbance. The method, then: (§1) The binding analysis of 4K21 to the mutant GM-CSF polypeptides M1 to M5b was performed using a semi-quantitative ELISA. Approximately equal amounts of GM-CSF were used to coat a Maxisorb (Nunc. Cat #464718) 384 well plate and serially diluted 2-fold to the bottom of the plate (16 times). Coating was performed overnight at room temperature. Plates were washed 3 times with wash buffer (1×PBS, 0.05% tween) and blocked for 1 hr at 37° C. with PBS, 1% BSA solution. Plates were then washed 3 times with wash buffer. […] The plates were washed 3 times with wash buffer then secondary antibody, HRP conjugated goat anti mouse IgG (Jackson Cat #115-036-062) for 4K21 and rabbit anti rat IgG (BD, cat#P0450) for the BD commercial antibody was added to the wells at 1/5000 dilution and incubated at 37° C. for 1 hr. Plates were washed 4 times following which BD OptEIA TMB substrate (Cat #555214), prepared according to the manufacturer's instructions, was added to the wells and incubated at room temperature for 10 minutes. The reaction was stopped with 1M sulphuric acid and the plate read on a Tecan plate reader at 450 nm with reference filter at 620 nm.
(§2) Binding analysis was carried out essentially as described above with the exception of the method of quantitation. The BD antibody was used to quantitate the relative expression of the alanine mutants as none of these mutants were in the M2 binding epitope of the BD antibody. […] The binding was then compared to 4K21 used at 12.5 ng/ml with the secondary antibody being goat anti-mouse IgG-HRP antibody (Cat #115-036-062) at 1/2500 dilution.

A further assay concerns the target T2, T99A.
T2 construct: also called human GM-CSF alanine mutant T99A; the BD entry of the legend box prints 'T97A'
The description is as above. The method, then:
as §1, §2

A further assay has as its target T3, Q100A.
T3 construct: also called human GM-CSF alanine mutant Q100A
The description is as above. The method, then:
as §1, §2

Assay [1] deals with human GM-CSF alanine mutant I101A (human, UniProt P04141 18-144). The assay is described as above. The method, then:
as §1, §2

In assay [2] the target is human GM-CSF alanine mutant C89A (human, UniProt P04141 18-144). Described as above. The method, then: as §1, §2
Another assay deals with T4, murine GM-CSF (murine, UniProt P01587 18-141).
T4 construct: also called wild type murine GM-CSF
T4 sequence (looked up): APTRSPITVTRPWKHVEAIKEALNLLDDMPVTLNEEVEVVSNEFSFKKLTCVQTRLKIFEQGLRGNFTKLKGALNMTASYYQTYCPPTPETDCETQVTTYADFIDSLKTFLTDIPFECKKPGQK
Put plainly: semi-quantitative ELISA (data not shown).

The target in assay [3] is T5, human GM-CSF mutant M2 (R24 to M37 replaced by murine sequence) (human).
T5 construct: The flanking ranges are derived from the stated region
Nature of the assay: semi-quantitative ELISA; GM-CSF polypeptide coated in 2-fold dilutions (x axis = coating concentration), 4K21 fixed at 12.5 ng/ml, goat anti-mouse IgG-HRP, absorbance 450 nm. The method, then:
as §1

The target of assay [4] is T6, wild type human GM-CSF (human, UniProt P04141 18-144).
T6 construct: Biacore and TF-1 assays used recombinant human GM-CSF (Peprotech); also called recombinant human GM-CSF; WT
Put plainly: SPR (Biacore), human GM-CSF coated on CM5 chip, antibody injected; GM-CSF coated onto CM5 chip, antibody injected. The method, then: (§3) Recombinant human GM-CSF was coated onto a CM5 chip to determine the binding kinetics of 4K21 mAb. An uncoated flow cell was used as a reference. The antibody, prepared in HBS-EP at concentrations of 66.7 nM to 4.17 nM with 2-fold serial dilution, was injected for 2 minutes with a stabilisation time of 10 minutes and dissociation time of 15 minutes. The BIACore kinetic analysis wizard was run to determine each antibody's association (ka [1/Ms]), dissociation (kd[1/s]) and affinity (KD [nM]) to GM-CSF. […] Moreover, binding of 4K21 mAb to human GM-CSF is highly specific.

In assay [5] the target is T6, wild type human GM-CSF. Nature of the assay: SPR (Biacore), alternative method of antibody capture; alternative method of antibody capture.
Assay [6] concerns the target T6, wild type human GM-CSF. Put plainly: cell-based or functional assay.
In assay [7] the target is T6, wild type human GM-CSF. Nature of the assay: SPR (Biacore), human GM-CSF coated on CM5 chip, antibody injected. On the procedure: as §3

T6 sequence (P04141 other isoform, or with tags, fused parts or gaps limits assumed): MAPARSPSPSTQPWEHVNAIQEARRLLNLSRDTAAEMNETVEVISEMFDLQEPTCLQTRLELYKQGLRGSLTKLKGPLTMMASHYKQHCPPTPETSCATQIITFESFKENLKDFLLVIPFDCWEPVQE
T2 sequence (single chain, as listed by the source T99A T99A): as the sequence (P04141 other isoform, or with tags, fused parts or gaps limits assumed) above, with T99A counted along it
Sequence of human GM-CSF alanine mutant C89A (P04141 other isoform, or with tags, fused parts or gaps C89A C89A limits assumed): as the sequence (P04141 other isoform, or with tags, fused parts or gaps limits assumed) above, with C89A counted along it
T5 sequence (P04141 other isoform, or with tags, fused parts or gaps mutant): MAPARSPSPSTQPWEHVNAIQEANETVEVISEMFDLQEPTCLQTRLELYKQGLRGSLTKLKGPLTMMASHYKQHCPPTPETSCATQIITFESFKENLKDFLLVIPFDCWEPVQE
T1 sequence (single chain, as listed by the source S96A S96A): as the sequence (P04141 other isoform, or with tags, fused parts or gaps limits assumed) above, with S96A counted along it
T3 sequence (single chain, as listed by the source Q100A Q100A): as the sequence (P04141 other isoform, or with tags, fused parts or gaps limits assumed) above, with Q100A counted along it
Sequence of human GM-CSF alanine mutant I101A (P04141 other isoform, or with tags, fused parts or gaps I101A I101A limits assumed): as the sequence (P04141 other isoform, or with tags, fused parts or gaps limits assumed) above, with I101A counted along it

B1: murine anti-human GM-CSF monoclonal antibody 4K21-O11-E14 (antibody, V domains shown)
VH: EVQLVESGGGLVKSGGSLKLSCAASGFAFSAYDMSWVRQTPEKRLELVAYISSGGSSFYYPDTVKGRFTISRDNAKNTLYLQMSSLKSEDTAMYYCTRHLGFDYWGQGTTLTVSS
VL: DVVMTQTPLSLPVSLGDQASISCRSSQSLVNSNGNTYLHWFLQKPGQSPKLLIYKVSNRFSGVPDRFSGSGSGTDFTLKISRVEAEDLGVYFCSQSTHVPPTFGGGTKLEIK
notes: Murine monoclonal antibody from a hybridoma (ECACC 07051601), detected with anti-mouse IgG; also called 4K21 mAb; mAb 4K21
For B1, the binding result with S96A is recorded as “binds”; in the assay with T99A it was “binds”; with Q100A, “binds”; in [1] it was “binds”; in assay [2] it was “binds”; in the assay with murine GM-CSF, “no binding”. Further, the “EC50 (read off the curve)” value in assay [3] was about 20 mg/L. Moreover, the Kd in the assay with wild type human GM-CSF [4] was about 0.2 nM; with wild type human GM-CSF [5], about 0.43 nM; with wild type human GM-CSF [7], under 0.17 nM. Further, the “IC50, neutralisation of human GM-CSF dependent TF-1 cell growth (3H-thymidine)” value with wild type human GM-CSF [6] is about 0.308 nM. The Ka in the assay with wild type human GM-CSF [7] was over 5.9e+09 M⁻¹. Further, the koff with wild type human GM-CSF [7] is under 1e-05 s⁻¹. The same molecule showed a kon with wild type human GM-CSF [7] of 59000 M⁻¹ s⁻¹.

The values are drawn from patent publication US20100297135A1 (CRC FOR ASTHMA AND AIRWAYS, published 2010).
